Common to all, as to experiment: Kinase profiling (radiometric filter-binding)
Holding throughout (type): biochemical

The target of series [1] is PIM1 (Homo sapiens, UniProt P11309). Particulars: PIM1, 1 µM inhibitor; for remaining activity at 1 µM: read-out: Residual activity, %. In short, it runs like this: (§1)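 Screening format: radiometric, filter-based capture of phosphorylated substrate by human kinases. Conditions: ATP at/below KM, inhibitor 1 µM (final total). Output: remaining activity in percent of control.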
Chain of PIM1 (P11309 whole entry): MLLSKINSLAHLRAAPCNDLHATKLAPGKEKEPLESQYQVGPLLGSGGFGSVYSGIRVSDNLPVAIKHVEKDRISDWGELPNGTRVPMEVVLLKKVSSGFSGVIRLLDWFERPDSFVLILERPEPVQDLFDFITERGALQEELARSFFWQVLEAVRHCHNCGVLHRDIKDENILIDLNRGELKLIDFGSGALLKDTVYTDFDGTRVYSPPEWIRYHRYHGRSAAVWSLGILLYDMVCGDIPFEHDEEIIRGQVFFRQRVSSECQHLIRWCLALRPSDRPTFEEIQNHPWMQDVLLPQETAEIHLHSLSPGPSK

In series [2] the target is CSK (Homo sapiens, UniProt P41240). Particulars: 1 µM inhibitor, read-out: Residual activity, %. In outline: as §1
Chain of CSK (P41240 whole entry): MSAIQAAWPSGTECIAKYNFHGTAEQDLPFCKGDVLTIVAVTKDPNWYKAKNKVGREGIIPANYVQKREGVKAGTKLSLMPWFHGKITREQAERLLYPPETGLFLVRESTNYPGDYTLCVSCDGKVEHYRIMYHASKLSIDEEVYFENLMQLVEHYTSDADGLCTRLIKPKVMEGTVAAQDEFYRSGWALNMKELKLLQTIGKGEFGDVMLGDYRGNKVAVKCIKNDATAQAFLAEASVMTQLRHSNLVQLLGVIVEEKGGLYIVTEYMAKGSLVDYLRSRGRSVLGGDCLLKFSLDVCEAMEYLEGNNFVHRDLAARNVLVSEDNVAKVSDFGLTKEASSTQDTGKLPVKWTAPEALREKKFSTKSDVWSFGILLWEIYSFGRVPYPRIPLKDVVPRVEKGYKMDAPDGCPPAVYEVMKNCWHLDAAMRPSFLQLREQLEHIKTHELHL
In series [3] the target is TESK1 (Homo sapiens, UniProt Q15569). Particulars: TESK1, 1 µM inhibitor; read-out: Residual activity, %. In short, it runs like this:
as §1

Series [4] concerns the target PAK4 (Homo sapiens, UniProt O96013). As to conditions: PAK4, 1 µM inhibitor; read-out: Residual activity, %. In outline:
as §1

Series [5] addresses T1, BRSK2 (Homo sapiens, UniProt Q8IWQ3).
T1 sequence (Q8IWQ3 1-736): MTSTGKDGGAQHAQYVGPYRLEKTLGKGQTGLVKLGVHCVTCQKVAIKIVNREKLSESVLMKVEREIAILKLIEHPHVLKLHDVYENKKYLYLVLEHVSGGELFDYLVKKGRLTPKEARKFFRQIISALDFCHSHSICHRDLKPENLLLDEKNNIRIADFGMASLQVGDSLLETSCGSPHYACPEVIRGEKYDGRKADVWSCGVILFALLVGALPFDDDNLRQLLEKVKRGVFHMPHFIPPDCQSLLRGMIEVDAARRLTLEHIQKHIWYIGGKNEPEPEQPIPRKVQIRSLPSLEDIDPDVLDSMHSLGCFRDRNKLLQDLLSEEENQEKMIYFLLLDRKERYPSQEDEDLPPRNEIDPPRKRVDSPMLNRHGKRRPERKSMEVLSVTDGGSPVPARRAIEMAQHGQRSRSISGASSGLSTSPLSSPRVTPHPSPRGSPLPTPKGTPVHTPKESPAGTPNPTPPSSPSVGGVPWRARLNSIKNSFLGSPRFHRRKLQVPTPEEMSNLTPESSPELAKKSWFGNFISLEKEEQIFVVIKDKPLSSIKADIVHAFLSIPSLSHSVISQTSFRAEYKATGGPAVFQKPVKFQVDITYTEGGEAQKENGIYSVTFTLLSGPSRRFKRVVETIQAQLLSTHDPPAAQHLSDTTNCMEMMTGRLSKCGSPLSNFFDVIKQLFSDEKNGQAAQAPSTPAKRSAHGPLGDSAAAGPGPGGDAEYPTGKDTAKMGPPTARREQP
As to conditions: BRSK2, 1 µM inhibitor; read-out: Residual activity, %. In short, it runs like this: as §1

Series [6] addresses T2, IRAK4 (Homo sapiens, UniProt Q9NWZ3).
T2 sequence (Q9NWZ3 1-460): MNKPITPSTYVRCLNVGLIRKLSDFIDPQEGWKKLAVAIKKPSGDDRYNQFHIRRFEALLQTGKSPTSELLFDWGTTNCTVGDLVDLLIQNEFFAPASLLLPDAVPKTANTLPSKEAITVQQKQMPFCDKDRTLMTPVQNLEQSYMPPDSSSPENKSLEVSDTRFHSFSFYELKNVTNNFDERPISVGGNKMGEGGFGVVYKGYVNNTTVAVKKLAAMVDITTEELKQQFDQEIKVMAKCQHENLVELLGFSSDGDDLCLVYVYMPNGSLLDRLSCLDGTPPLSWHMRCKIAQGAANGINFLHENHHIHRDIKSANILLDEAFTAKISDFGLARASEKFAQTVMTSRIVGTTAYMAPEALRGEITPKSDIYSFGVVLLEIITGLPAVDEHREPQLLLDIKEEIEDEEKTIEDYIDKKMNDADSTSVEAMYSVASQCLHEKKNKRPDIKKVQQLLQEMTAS
As to conditions: IRAK4, 1 µM inhibitor; read-out: Residual activity, %. In outline:
as §1

For series [7], the target named is MARK2 (Homo sapiens, UniProt Q7KZI7). Particulars: MARK2, 1 µM inhibitor; read-out: Residual activity, %. In short, it runs like this: as §1
Chain of MARK2 (Q7KZI7 whole entry): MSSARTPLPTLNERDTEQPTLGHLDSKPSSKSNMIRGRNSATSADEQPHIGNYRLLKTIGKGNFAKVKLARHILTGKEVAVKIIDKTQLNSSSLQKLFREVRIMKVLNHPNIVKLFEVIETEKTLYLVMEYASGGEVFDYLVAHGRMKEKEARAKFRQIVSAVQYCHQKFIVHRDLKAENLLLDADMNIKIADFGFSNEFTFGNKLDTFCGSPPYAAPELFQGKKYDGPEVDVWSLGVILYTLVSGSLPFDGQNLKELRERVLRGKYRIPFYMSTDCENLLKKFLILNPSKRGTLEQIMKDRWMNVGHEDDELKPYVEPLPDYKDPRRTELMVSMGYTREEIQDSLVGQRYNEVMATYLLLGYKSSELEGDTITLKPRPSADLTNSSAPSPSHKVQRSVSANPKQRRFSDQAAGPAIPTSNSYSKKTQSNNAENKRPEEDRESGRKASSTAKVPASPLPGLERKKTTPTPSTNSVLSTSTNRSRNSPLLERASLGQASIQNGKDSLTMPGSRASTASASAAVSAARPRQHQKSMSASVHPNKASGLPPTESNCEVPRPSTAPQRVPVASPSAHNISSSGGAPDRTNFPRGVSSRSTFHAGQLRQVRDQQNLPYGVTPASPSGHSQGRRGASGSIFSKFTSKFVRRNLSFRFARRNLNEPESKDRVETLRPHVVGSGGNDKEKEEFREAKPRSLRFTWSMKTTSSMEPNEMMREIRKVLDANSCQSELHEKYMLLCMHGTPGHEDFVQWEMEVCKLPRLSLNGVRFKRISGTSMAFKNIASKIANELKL
The target in series [8] is T3, ULK1 (Homo sapiens, UniProt O75385).
T3 sequence (O75385 1-1050): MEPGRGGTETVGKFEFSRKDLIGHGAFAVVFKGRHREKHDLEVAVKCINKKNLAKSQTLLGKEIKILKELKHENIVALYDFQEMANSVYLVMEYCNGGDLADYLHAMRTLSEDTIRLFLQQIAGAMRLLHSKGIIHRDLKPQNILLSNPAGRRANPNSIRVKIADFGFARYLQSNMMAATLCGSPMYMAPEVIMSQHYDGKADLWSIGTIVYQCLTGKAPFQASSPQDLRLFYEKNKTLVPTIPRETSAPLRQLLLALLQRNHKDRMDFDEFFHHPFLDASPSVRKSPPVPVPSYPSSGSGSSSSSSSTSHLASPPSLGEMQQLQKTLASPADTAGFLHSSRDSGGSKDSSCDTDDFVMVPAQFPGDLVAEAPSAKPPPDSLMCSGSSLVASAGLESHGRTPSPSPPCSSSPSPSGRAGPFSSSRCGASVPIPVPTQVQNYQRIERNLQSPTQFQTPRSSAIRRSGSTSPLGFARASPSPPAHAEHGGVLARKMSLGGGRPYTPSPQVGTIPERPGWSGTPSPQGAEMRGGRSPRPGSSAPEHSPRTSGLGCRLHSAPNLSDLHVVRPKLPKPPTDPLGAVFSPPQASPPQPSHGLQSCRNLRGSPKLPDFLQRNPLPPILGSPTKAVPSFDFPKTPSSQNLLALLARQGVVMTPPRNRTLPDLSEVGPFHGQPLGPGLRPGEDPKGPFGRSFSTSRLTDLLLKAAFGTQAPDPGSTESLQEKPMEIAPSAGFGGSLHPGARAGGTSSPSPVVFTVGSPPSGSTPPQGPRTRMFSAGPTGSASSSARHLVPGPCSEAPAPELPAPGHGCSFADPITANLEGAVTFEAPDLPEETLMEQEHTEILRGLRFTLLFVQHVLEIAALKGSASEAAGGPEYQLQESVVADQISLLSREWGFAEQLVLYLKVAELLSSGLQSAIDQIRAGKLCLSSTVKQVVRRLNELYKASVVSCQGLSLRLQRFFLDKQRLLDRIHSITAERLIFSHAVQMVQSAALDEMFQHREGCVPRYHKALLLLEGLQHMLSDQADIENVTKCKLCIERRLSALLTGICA
As to conditions: ULK1, 1 µM inhibitor; read-out: Residual activity, %. In short, it runs like this:
as §1

Here are results for five compounds from PMC8307404, “Crystal Structure-Guided Design of Bisubstrate Inhibitors and Photoluminescent Probes for Protein Kinases of the PIM Family” (Molecules, 2021).

Square brackets hold non-standard residues; d marks the D form. Peptide text beside a SMILES is read from it. * marks the point of attachment. X3 = O=C(CCCCCNCc1nc2c(sc3cc(Br)cnc32)c(=O)[nH]1)*

Chain of TESK1 (Q15569 whole entry): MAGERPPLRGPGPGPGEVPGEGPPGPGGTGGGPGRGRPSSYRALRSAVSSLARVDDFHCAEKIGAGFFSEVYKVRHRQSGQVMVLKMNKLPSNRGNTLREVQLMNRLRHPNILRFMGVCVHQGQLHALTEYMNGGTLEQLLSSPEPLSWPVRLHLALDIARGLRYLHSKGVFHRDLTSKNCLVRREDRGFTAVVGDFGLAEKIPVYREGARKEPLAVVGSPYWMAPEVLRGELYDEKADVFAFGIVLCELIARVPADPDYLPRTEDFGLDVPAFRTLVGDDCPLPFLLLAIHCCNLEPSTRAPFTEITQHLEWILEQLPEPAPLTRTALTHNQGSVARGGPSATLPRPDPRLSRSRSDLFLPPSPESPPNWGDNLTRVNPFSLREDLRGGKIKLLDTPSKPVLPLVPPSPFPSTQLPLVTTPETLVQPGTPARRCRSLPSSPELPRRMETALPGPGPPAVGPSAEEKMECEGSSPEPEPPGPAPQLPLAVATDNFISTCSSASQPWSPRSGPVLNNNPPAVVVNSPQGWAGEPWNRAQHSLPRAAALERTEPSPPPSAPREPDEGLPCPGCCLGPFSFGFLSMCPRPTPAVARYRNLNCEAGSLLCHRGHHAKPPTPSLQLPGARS
Chain of PAK4 (O96013 whole entry): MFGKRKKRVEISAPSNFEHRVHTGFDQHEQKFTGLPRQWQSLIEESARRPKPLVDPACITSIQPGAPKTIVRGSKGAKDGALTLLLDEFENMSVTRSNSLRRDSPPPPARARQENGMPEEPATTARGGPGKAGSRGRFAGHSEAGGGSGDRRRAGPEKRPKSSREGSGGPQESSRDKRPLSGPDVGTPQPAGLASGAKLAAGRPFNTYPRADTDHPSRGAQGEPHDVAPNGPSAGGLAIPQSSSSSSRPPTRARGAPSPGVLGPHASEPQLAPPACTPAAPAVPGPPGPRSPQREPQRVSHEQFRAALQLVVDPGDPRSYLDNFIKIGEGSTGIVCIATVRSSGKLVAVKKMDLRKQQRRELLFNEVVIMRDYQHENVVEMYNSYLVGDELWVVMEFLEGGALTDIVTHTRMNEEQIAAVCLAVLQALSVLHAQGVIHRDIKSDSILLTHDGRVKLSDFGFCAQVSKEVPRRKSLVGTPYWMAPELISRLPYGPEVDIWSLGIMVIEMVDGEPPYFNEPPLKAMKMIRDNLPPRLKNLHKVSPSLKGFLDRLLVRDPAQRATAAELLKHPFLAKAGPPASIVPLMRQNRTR

`N=C(N)NCCC[C@@H](NC(=O)CCCCCNCc1nc2c(sc3cc(Br)cnc32)c(=O)[nH]1)C(=O)N[C@H](CCCNC(=N)N)C(=O)N[C@H](CCCNC(=N)N)C(=O)N[C@H](CCCNC(=N)N)C(=O)N[C@H](CCCNC(=N)N)C(=O)N[C@H](CCCNC(=N)N)C(=O)N[C@H](CCCCN)C(N)=O` [ARC-3126, BPTP-Ahx-(D-Arg)6-D-Lys-NH2] (X3-[dR][dR][dR][dR][dR][dR][dK]-NH2): the “Residual activity, %” value in series [1] was “zero”. The remaining activity at 1 µM in series [1] was 0%; in series [2], 91 ± 18%; in series [3], 99 ± 14%; in series [4] it was 71 ± 42%; in series [5], 100 ± 9%; in series [6] it was 97 ± 2%. For the same compound, the remaining activity at 1 µM in series [7] was 103 ± 7%; in series [8], 119 ± 6%.

With `N=C(N)NCCC[C@@H](NC(=O)CNC(=O)[C@@H](CCCNC(=N)N)NC(=O)[C@@H](CCCNC(=N)N)NC(=O)CCCCCCCNCc1nc2c(sc3ccc(Br)cc32)c(=O)[nH]1)C(=O)N[C@H](CCCCN)C(N)=O` [Compound 2, BBTP-Aoc-(D-Arg)2-Gly-D-Arg-D-Lys-NH2], the remaining activity at 1 µM in series [1] is 5 ± 3%; in series [2] it was 112 ± 20%; in series [3], 106 ± 13%; in series [4], 98 ± 14%; in series [5], 108 ± 12%; in series [6], 108 ± 8%. Further, the remaining activity at 1 µM in series [7] was 107 ± 4%; in series [8], 99 ± 6%.

As to `N=C(N)NCCC[C@@H](NC(=O)CNC(=O)[C@@H](CCCNC(=N)N)NC(=O)[C@@H](CCCNC(=N)N)NC(=O)Cn1cc(CNCc2nc3c(sc4ccc(Br)cc43)c(=O)[nH]2)nn1)C(=O)N[C@H](CCCCN)C(N)=O` [Compound 3, BBTP-Amt-(D-Arg)2-Gly-D-Arg-D-Lys-NH2], the remaining activity at 1 µM in series [1] was determined as 5 ± 1%; in series [2] it was 116 ± 5%; in series [3] it was 105 ± 1%; in series [4], 77 ± 13%; in series [5], 96 ± 8%; in series [6], 107 ± 7%. Further, the values for the remaining activity at 1 µM in series [7] and in series [8] were 79% and 108 ± 11%, respectively.

As for `N=C(N)NCCC[C@@H](NC(=O)CCCCCNC(=O)Cn1cnc2c(I)c(I)c(I)c(I)c21)C(=O)N[C@H](CCCNC(=N)N)C(=O)N[C@H](CCCNC(=N)N)C(=O)N[C@H](CCCNC(=N)N)C(=O)N[C@H](CCCNC(=N)N)C(=O)N[C@H](CCCNC(=N)N)C(=O)N[C@H](CCCCN)C(N)=O` [ARC-3125, TIBI-CH2-C(=O)-Ahx-(D-Arg)6-D-Lys-NH2], the remaining activity at 1 µM in series [1] amounted to 0%; in series [2], 85 ± 2%; in series [3], 102 ± 3%; in series [4], 50 ± 2%; in series [5], 107 ± 23%; in series [6], 73 ± 2%. Also, the figures for the remaining activity at 1 µM in series [7] and in series [8] were 86 ± 4% and 89 ± 9%, respectively.

In the case of `N=C(N)NCCC[C@@H](NC(=O)CNC(=O)[C@@H](CCCNC(=N)N)NC(=O)[C@@H](CCCNC(=N)N)NC(=O)CCCCCCCNCc1nc2c(sc3cc(Br)cnc32)c(=O)[nH]1)C(=O)N[C@H](CCCCN)C(N)=O` [Compound 1, BPTP-Aoc-(D-Arg)2-Gly-D-Arg-D-Lys-NH2], the remaining activity at 1 µM in series [1] worked out at 9%; in series [2], 141 ± 10%; in series [3], 111 ± 11%; in series [4], 91%; in series [5] it was 124 ± 12%; in series [6], 110 ± 3%. Moreover, the results for the remaining activity at 1 µM in series [7] and in series [8] were 106 ± 10% and 107 ± 5%, respectively.
